One assay has as its target RBD-VLP (SARS-CoV-2) (UniProt P0DTC2).
Assay [1] has as its target spike glycoprotein of wild type SARS-CoV-2 virus (SARS-CoV-2) (UniProt P0DTC2). Briefly: cell-based or functional assay.

The term IC50 denotes the concentration that inhibits the measured activity by half. With VHH72-Fc, the IC50 in the assay with RBD-VLP (SARS-CoV-2) is 2 nM.

As for CR3022 (antibody), the Neutralization by PRNT EC50 in assay [1] is 42 nM.

The values above are taken from patent US20230279079A1.
